Columns and labels:
SHP2-C SH2 = assay: SH2 binding enrichment of the phosphorylated peptide, bacterial display (enrichment ratio); higher = better substrate or ligand; peptides without Tyr show the background
Grb2 SH2 = Grb2 SH2 (UniProt P62993); assay: as above
c-Src SH2 = assay: as above
FGFR3 = FGFR3 (UniProt P22607); assay: phosphorylation enrichment, bacterial display (enrichment ratio); higher = better substrate or ligand; peptides without Tyr show the background
c-Abl (mouse) = assay: as above
c-Src = assay: as above
AncSZ = assay: as above
Fyn = Fyn (UniProt P06241); assay: as above
Hck = Hck (UniProt P08631); assay: as above
Hck, sequence (P08631 whole entry, looked up): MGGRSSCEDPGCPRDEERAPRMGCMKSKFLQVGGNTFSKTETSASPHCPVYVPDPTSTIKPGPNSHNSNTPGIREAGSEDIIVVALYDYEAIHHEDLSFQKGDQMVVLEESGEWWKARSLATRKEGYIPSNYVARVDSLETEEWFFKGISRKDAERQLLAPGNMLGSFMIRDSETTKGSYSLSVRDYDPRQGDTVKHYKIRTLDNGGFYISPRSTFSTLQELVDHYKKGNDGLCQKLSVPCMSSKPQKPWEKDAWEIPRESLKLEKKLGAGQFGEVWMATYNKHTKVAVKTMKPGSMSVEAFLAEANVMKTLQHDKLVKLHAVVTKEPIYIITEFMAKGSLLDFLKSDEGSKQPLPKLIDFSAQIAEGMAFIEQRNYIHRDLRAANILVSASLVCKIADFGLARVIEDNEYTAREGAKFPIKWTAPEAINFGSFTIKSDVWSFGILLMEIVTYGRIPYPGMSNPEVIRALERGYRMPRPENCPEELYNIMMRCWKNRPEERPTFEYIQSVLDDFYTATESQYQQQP

EPHB2 = EPHB2 (UniProt P29323); assay: as above
Jak2 = Jak2 (UniProt O60674); assay: as above
Jak2, sequence (O60674 whole entry, looked up): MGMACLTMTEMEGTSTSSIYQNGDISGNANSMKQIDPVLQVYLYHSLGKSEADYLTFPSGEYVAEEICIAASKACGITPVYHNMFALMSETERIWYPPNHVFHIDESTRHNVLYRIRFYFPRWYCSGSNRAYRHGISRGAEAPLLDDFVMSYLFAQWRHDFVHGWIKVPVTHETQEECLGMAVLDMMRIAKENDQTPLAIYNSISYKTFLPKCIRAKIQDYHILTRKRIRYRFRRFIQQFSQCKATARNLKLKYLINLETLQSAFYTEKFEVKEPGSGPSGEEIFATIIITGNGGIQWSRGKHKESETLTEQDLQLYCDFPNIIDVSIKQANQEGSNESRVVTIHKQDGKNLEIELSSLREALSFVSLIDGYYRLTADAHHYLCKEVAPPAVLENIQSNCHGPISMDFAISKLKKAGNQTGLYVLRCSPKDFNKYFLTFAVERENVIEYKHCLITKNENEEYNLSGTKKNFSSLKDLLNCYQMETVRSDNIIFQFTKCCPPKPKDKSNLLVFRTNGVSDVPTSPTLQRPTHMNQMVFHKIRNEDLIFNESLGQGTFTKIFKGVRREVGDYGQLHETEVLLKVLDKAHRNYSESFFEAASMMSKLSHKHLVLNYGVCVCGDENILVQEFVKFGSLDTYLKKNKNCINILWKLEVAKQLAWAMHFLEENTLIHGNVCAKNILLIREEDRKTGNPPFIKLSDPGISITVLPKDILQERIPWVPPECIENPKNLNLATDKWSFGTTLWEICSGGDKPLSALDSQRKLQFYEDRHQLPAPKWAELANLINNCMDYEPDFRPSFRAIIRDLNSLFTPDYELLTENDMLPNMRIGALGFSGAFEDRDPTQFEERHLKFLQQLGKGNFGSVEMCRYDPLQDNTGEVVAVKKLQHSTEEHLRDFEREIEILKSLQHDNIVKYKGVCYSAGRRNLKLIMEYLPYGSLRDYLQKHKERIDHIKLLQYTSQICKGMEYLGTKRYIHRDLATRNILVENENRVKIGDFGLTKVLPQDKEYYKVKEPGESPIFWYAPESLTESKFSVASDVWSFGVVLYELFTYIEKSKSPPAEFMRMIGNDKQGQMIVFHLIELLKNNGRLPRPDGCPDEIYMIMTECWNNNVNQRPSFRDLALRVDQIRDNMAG

EPHB1 = EPHB1 (UniProt P54762); assay: as above
EPHB1, sequence (P54762 whole entry, looked up): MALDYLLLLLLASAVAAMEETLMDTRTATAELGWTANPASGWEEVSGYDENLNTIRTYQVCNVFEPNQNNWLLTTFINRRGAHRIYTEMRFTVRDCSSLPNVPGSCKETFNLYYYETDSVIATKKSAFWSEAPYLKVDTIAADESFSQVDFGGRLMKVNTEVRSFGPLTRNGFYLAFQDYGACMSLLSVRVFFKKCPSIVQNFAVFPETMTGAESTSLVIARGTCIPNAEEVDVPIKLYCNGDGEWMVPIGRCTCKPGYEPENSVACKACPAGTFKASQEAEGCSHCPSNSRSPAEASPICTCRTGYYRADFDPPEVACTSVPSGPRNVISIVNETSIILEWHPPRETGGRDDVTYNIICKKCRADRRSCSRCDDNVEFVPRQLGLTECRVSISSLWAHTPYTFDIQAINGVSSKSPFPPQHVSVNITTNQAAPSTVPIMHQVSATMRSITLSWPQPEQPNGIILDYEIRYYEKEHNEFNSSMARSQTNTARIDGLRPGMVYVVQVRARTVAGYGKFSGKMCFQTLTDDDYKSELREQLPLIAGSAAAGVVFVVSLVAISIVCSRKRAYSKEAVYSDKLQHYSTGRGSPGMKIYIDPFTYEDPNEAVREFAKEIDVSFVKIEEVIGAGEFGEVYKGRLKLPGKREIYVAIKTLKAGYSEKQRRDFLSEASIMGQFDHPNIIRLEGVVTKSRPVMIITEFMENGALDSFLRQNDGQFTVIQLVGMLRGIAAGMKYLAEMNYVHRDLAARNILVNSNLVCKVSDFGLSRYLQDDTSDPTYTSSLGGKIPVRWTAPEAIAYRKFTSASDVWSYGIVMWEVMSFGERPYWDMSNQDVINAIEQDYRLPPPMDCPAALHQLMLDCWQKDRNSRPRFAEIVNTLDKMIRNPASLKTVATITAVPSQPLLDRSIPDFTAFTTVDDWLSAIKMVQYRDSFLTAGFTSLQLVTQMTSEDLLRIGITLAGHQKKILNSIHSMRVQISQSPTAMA

Fer (mouse) = assay: as above
Fes = Fes (UniProt P07332); assay: as above
Fes, sequence (P07332 whole entry, looked up): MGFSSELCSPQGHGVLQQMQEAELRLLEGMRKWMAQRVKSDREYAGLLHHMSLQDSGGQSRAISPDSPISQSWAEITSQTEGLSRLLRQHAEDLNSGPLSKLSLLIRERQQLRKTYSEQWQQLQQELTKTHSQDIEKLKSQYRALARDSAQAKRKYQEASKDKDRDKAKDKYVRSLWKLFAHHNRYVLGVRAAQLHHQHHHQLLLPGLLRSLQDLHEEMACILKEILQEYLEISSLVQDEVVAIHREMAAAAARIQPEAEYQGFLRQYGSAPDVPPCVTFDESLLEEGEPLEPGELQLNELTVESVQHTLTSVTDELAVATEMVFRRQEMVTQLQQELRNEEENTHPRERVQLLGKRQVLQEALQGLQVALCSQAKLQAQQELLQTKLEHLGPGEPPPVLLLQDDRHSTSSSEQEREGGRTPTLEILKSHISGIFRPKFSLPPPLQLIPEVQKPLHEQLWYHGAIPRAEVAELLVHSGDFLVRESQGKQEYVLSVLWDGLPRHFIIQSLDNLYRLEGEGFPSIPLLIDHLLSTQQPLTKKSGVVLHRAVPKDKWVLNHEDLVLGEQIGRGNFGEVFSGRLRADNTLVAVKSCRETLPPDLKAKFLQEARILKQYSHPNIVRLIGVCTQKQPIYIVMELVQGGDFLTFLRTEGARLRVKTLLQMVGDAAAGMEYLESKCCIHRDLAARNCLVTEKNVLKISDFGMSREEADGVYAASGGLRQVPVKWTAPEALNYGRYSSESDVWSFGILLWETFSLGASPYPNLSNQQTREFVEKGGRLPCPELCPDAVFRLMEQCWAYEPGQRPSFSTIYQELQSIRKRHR

MERTK = MERTK (UniProt Q12866); assay: as above
FGFR1 = FGFR1 (UniProt P11362); assay: as above
FGFR1, sequence (P11362 whole entry, looked up, the tested form may be a part): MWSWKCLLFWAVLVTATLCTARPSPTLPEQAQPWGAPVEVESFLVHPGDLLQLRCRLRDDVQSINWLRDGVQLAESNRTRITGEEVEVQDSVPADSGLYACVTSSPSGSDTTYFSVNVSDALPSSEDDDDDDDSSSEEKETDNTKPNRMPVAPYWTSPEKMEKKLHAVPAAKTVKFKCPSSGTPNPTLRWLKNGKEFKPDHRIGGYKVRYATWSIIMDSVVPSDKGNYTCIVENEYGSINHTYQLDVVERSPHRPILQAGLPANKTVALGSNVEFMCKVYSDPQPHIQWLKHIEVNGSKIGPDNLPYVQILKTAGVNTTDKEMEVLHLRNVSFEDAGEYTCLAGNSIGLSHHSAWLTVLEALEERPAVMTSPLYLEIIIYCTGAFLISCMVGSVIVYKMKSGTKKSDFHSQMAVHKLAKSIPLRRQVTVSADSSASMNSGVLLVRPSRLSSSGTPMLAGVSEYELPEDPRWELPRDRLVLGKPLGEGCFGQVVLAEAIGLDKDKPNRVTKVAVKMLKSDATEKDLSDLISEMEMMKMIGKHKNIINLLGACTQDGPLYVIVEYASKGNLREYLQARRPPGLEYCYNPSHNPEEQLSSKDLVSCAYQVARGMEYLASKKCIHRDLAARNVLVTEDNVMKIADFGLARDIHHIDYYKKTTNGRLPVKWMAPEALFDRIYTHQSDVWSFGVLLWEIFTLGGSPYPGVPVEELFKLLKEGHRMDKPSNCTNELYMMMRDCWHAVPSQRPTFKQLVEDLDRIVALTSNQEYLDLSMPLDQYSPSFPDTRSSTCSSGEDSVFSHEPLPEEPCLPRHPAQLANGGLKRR
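Wherever SH2 binding enrichment of the phosphorylated peptide, bacterial display is given: peptide library displayed on the E. coli surface as eCPX fusions, selected cells deep-sequenced, score is each peptide's frequency after selection divided by its frequency in the input.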
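Wherever phosphorylation enrichment, bacterial display is given: 11-residue human phosphosite peptides and single-mutation variants displayed on the E. coli surface, counted by deep sequencing, each peptide's frequency after selection divided by its frequency in the unselected input library; frequency after pTyr selection over input frequency; kinase dosed for 20-30% of maximal phosphorylation in three min.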

FGFR3, sequence (P22607 whole entry, looked up): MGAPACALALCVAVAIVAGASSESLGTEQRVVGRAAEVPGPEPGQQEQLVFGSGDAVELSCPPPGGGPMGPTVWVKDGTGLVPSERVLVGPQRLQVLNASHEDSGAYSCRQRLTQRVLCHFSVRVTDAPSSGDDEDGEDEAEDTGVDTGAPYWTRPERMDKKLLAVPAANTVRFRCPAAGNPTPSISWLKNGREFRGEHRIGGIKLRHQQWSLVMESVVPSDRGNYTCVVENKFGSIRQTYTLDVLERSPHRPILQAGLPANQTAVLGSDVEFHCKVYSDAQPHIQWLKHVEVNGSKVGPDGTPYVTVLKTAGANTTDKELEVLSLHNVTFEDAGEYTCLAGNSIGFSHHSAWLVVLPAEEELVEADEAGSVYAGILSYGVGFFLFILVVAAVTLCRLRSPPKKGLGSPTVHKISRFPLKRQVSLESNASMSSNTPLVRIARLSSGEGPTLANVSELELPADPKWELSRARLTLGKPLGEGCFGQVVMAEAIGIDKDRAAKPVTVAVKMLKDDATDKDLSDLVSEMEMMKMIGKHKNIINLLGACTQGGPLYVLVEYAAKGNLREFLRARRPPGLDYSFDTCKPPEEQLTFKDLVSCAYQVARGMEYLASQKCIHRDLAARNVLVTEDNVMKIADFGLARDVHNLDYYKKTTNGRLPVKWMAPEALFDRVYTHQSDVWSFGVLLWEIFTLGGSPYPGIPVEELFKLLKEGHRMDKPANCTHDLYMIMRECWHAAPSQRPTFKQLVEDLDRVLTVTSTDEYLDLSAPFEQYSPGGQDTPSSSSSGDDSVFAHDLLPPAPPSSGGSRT

Row | SH2 binding enrichment (SHP2-C SH2) | SH2 binding enrichment (Grb2 SH2) | SH2 binding enrichment (c-Src SH2) | Sequence | phosphorylation enrichment (FGFR3) | phosphorylation enrichment (c-Abl (mouse)) | phosphorylation enrichment (c-Src) | phosphorylation enrichment (AncSZ) | phosphorylation enrichment (Fyn) | phosphorylation enrichment (Hck) | phosphorylation enrichment (EPHB2) | phosphorylation enrichment (Jak2) | phosphorylation enrichment (EPHB1) | phosphorylation enrichment (Fer (mouse)) | phosphorylation enrichment (Fes) | phosphorylation enrichment (MERTK) | phosphorylation enrichment (FGFR1)
1 | 1.04 | 0.801 | 0.443 | DGNIDYAEFAK [MCFD2_Y138_Y135N] | 0.62 | 0.757 | 0.646 | 1.24 | 0.804 | 0.673 | 0.545 | 0.987 | 0.498 | 0.445 | 1.2 | 0.51 | 0.595
2 | 0.753 | 0.733 | 0.874 | ADDSYYTVRSA [ZAP70_Y493_A495V] | 5.2 | 0.611 | 2.45 | 1.56 | 2.01 | 2.89 | 0.637 | 1.47 | 0.709 | 0.425 | 0.941 | 0.784 | 7.54
3 | 1.18 | 0.973 | 0.587 | ADYPDYKYRPR [SOX11_Y116] | 0.613 | 0.461 | 0.409 | 0.673 | 0.389 | 0.505 | 0.489 | 0.601 | 0.48 | 0.342 | 0.718 | 0.378 | 0.594
4 | 0.529 | 0.866 | 0.6 | ALERPYTSKHS [NANS_Y71] | 0.398 | 0.615 | 0.461 | 0.531 | 0.406 | 0.463 | 0.459 | 0.564 | 0.372 | 0.353 | 0.535 | 0.442 | 0.381
5 | 0.536 | 0.704 | 0.443 | DYSLKYATDIP [APC_Y1183] | 0.913 | 0.736 | 0.571 | 1.35 | 0.582 | 0.6 | 0.565 | 1.25 | 0.78 | 0.573 | 1.29 | 0.5 | 0.6
6 | 1.4 | 1.32 | 0.842 | KQLYAYKMLMA [TMC2_Y209] | 0.496 | 0.57 | 0.383 | 0.629 | 0.39 | 0.458 | 0.445 | 0.669 | 0.62 | 0.384 | 0.72 | 0.368 | 0.515
7 | 0.546 | 0.79 | 0.469 | IDDNEYAFLKA [HNF4A_Y286_YF] | 1.43 | 0.922 | 0.728 | 1.54 | 0.8 | 0.98 | 0.597 | 1.13 | 0.652 | 0.659 | 1.32 | 0.538 | 1.44
8 | 0.818 | 0.904 | 0.601 | DNLSNYVFQGQ [GRIN2A_Y978_N976S] | 0.611 | 0.546 | 0.454 | 0.71 | 0.475 | 0.41 | 1.22 | 0.783 | 2.09 | 0.416 | 0.796 | 0.618 | 0.571

Reference: the supplement of paper PMC10065799, “High-throughput profiling of sequence recognition by tyrosine kinases and SH2 domains using bacterial peptide display” (eLife, 2023)
